Laboratory results: patent publication US20240109972A1, “ANTIBODY AND TAXANE COMBINATION THERAPY” (Genmab A/S, priority 2020, published 2024)
“Also recorded” adds a separate entry of the source.

Experiment: GEN1046 Phase I dose escalation, safety and dose finding
Format: in vivo
Source text: The recommended phase 2 dose (RP2D) was based on a review of the available safety and dosing information and could be lower than the maximum tolerated dose (MTD).

In the case of “GEN1046: PD-L1×4-1BB bispecific antibody: PD-L1-547-FEAL combined with CD137-009-HC7LC2-FEAR (SEQ ID NOs: 1, 5, 21, 19; 8, 12, 22, 20)”, the Doses administered safely (1Q3W) was “up to 1200 mg”, the “Patients with dose limiting toxicities (DLTs)” value (dose escalation) was “Six” and the “Severity of most adverse events” value (dose escalation) was “mild to moderate”. For the same substance, the “Treatment-related bilirubin increases or Grade 4 transaminase elevations” value (dose escalation) was “No treatment-related bilirubin increases or Grade 4 transaminase elevations were observed”, the “Maximum tolerated dose (MTD)” value (dose escalation, 1Q3W) was “not reached; also recorded: no MTD was determined” and the “Most frequent adverse events” value (patients receiving GEN1046) was “transaminase elevations, followed by hyperthyroidism, fatigue, nausea, asthenia and neutrophil count decrease”.
